Data: publication PMC11092868, “Mapping Novel Frataxin Mitochondrial Networks Through Protein- Protein Interactions” (Research Square, 2024)

Target: the molecule itself
Test: non-reducing SDS-PAGE and immunoblot after NEM alkylation; lysis in alkylation buffer with 100 mM N-ethylmaleimide and 10 ug/mL catalase; oxidized dimers against reduced monomers; with or without beta-mercaptoethanol in Laemmli buffer

B1: Peroxiredoxin 3, endogenous human (natural protein, UniProt P30048 62-256, looked up)
chain: APAVTQHAPYFKGTAVVNGEFKDLSLDDFKGKYLVLFFYPLDFTFVCPTEIVAFSDKANEFHDVNCEVVAVSVDSHFSHLAWINTPRKNGGLGHMNIALLSDLTKQISRDYGVLLEGSGLALRGLFIIDPNGVIKHLSVNDLPVGRSVEETLRLVKAFQYVETHGEVCPANWTPDSPTIKPSPAASKEYFQKVNQ
notes: Peroxiredoxin 3, mitochondrial, human; also called Prdx3; PRDX3; source: endogenous: A549 cells (BioID); human lymphoblast lysate fractions (co-IP); human dermal fibroblast lysate (redox blot)
stoichiometry N: 2

B2: Peroxiredoxin 3, endogenous mouse (natural protein, UniProt P20108 63-257, looked up)
chain: TPAVTQHAPYFKGTAVVNGEFKELSLDDFKGKYLVLFFYPLDFTFVCPTEIVAFSDKANEFHDVNCEVVAVSVDSHFSHLAWINTPRKNGGLGHMNITLLSDITKQISRDYGVLLESAGIALRGLFIIDPNGVVKHLSVNDLPVGRSVEETLRLVKAFQFVETHGEVCPANWTPESPTIKPSPTASKEYFEKVHQ
notes: Peroxiredoxin 3, mitochondrial, mouse; also called Prdx3; source: endogenous, mouse cerebellum and heart lysates
stoichiometry N: 2
